Source: paper PMC10939898

Columns and labels:
[1] = molecular target: fluorescently-labeled NCP carrying H2AK13ub and H2AK15ub (NCP^ub) (human) (UniProt P0CG48); experiment: fluorescence polarisation
[2] = molecular target: fluorescently-labeled nucleosome core particle (NCP) (human); experiment: fluorescence polarisation

| Kd [1] [nM] | Kd [2] [nM] | Substance |
| --- | --- | --- |
| 50 | 120 | full-length human RNF168 (RNF168^FL, aa 1–571) (from UniProt Q8IYW5 1-571) (natural protein) |
| 1400 | – | RNF168 MIU2-LRM (aa 430–481) (from UniProt Q8IYW5 430-481) (domain or fragment) |
| – | 400 | RNF168 RING domain (RNF168^R, aa 1–94) (from UniProt Q8IYW5 1-94) (domain or fragment) |
